From patent US20090004190A1, “Rage Fusion Proteins And Methods Of Use” (priority 2006, published 2009)
Several values for one entry are separate records, joined by “and”; a condition that tells them apart may be missing. Equal entries are not always repeated.

Tested on: allogeneic rejection of transplanted islet cells
Experiment: Allogeneic islet transplantation (BALB/c islets in streptozotocin-diabetic B6 mice)
Type: in vivo, mouse
Conditions: for day of graft loss, each animal: blood glucose exceeded 250 mg/dl; for day of graft loss, Mean: n 8
Experimental: C57BL/6J (6-8 week old) (B6) mice were made diabetic by a single intravenous injection of streptozotocin (STZ) (Sigma Chemical Co., St. Louis, Mo.) at 200 mg/kg. BALB/cJ (6-8 week old) (BALB) mice served as donors for islet transplantation, thus providing an allo-mismatch for islet transplants.
Mice (BALB/c) were anesthetized with ketamine HCl/xylazine HCl solution (Sigma, St. Louis Mo.). After intraductal injection of 3 ml of cold Hank's balanced salt solution (HBSS, Gibco, Grand Island N.Y.) containing 1.5 mg/ml of collagenase P (Roche Diagnostics, Branchburg, N.J.), pancreata were surgically procured and digested at 37° C. for 20 mins. Islets were washed with HBSS and purified by discontinuous gradient centrifugation using Polysucrose 400 (Cellgro, Herndon Va.) having four different densities (26%, 23%, 20%, and 11%). The tissue fragments at the interface of the 20% and 23% layers were collected, washed and resuspended in HBSS. Individual islets, free of attached acinar, vascular and ductal tissues were handpicked under an inverted microscope, yielding highly purified islets for transplantation.
Streptozotocin-induced diabetic C57BL/6 (B6) mice received islet grafts within 2 days of the diagnosis of diabetes. BALB/cJ (6-8 week old) (BALB) mice served as donors for allogeneic islet transplantation. For transplantation, 500-600 freshly isolated islets (i.e., approximately 550 islet equivalents) from donor mice were picked up with an infusion set and transplanted into the subcapular space of the right kidney of a recipient.
Test compounds were administered as soon as the islets were transplanted; administration continued for about 60 days, depending upon how the control animal was faring.
Islet graft function was monitored by serial blood glucose measurements daily for the first 2 weeks after islet transplantation, followed by every other day thereafter. Reversal of diabetes was defined as blood a glucose level of less than 200 mg/dl on two consecutive measurements. Graft loss was determined when blood glucose exceeded 250 mg/dl on two consecutive measurements.

[1] = 300 ug + 30 ug qod ip (Group 3)
[2] = 300 ug LD + 100 ug qod ip (Group 1)

B1: TTP-4000: four domain RAGE fusion protein: human RAGE V and C1 domains with interdomain linkers (to residue 251) fused to human IgG1 CH2 and CH3; SEQ ID NO: 34/56 (protein, listed as Homo sapiens)
chain: QNITARIGEPLVLKCKGAPKKPPQRLEWKLNTGRTEAWKVLSPQGGGPWDSVARVLPNGSLFLPAVGIQDEGIFRCQAMNRNGKETKSNYRVRVYQIPGKPEIVDSASELTAGVPNKVGTCVSEGSYPAGTLSWHLDGKPLVPNEKGVSVKEQTRRHPETGLFTLQSELMVTPARGGDPRPTFSCSFSPGLPRHRALRTAPIQPRVWEPVPLEEVQLVVEPEGGAVAPPSVFLFPPKPKDTLMISRTPEVTCVVVDVSHEDPEVKFNWYVDGVEVHNAKTKPREEQYNSTYRVVSVLTVLHQDWLNGKEYKCKVSNKALPAPIEKTISKAKGQPREPQVYTLPPSRDELTKNQVSLTCLVKGFYPSDIAVEWESNGQPENNYKTTPPVLDSDGSFFLYSKLTVDKSRWQQGNVFSCSVMHEALHNHYTQKSLSLSPGK
In the case of B1, the “day of graft loss, each animal” value [1] is reported as 13 day and 14 day and 12 day (2×) and 11 day (2×) and 8 day (2×), the “day of graft loss, Mean” value [1] is reported as 11.125 days and the “day of graft loss, each animal” value [2] is reported as 14 day (2×) and 16 day (2×) and 13 day (2×) and 12 day and 15 day. The “day of graft loss, Mean” value [2] was 14.125 days.
